According to IntAct's records for PubMed 18547396:

B1: Protein TIFY 7 (Arabidopsis thaliana (Mouse-ear cress)), Q8W4J8 (parent)
chain: MERDFLGLSDKQYLSNNVKHEVNDDAVEERGLSTKAAREWGKSKVFATSSFMPSSDFQEAKAFPGAYQWGSVSAANVFRRCQFGGAFQNATPLLLGGSVPLPTHPSLVPRVASSGSSPQLTIFYGGTISVFNDISPDKAQAIMLCAGNGLKGETGDSKPVREAERMYGKQIHNTAATSSSSATHTDNFSRCRDTPVAATNAMSMIESFNAAPRNMIPSVPQARKASLARFLEKRKERLMSAMPYKKMLLDLSTGESSGMNYSSTSPT
partner: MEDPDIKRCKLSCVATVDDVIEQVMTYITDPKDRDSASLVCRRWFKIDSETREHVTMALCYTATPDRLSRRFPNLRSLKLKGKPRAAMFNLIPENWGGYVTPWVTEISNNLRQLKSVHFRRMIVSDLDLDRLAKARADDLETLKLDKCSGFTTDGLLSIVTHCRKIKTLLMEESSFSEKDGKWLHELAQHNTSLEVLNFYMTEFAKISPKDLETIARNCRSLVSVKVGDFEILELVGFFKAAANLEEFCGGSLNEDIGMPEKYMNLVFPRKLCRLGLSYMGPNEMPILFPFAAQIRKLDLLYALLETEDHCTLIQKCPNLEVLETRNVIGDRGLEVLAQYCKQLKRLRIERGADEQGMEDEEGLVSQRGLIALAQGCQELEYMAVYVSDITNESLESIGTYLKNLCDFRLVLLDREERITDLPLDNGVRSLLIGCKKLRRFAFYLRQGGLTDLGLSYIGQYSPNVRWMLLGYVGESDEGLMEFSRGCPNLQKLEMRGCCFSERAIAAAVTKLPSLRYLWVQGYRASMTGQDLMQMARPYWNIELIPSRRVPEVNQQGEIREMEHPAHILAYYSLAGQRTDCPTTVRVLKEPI
B2: Protein TIFY 10A (Arabidopsis thaliana (Mouse-ear cress)), Q9LMA8 (parent)
chain: MSSSMECSEFVGSRRFTGKKPSFSQTCSRLSQYLKENGSFGDLSLGMACKPDVNGTLGNSRQPTTTMSLFPCEASNMDSMVQDVKPTNLFPRQPSFSSSSSSLPKEDVLKMTQTTRSVKPESQTAPLTIFYAGQVIVFNDFSAEKAKEVINLASKGTANSLAKNQTDIRSNIATIANQVPHPRKTTTQEPIQSSPTPLTELPIARRASLHRFLEKRKDRVTSKAPYQLCDPAKASSNPQTTGNMSWLGLAAEI
partner: B1 partner

Variants of: B1
Conditions: with coi1_arath COI1, O04197

Variant | effect of a mutation on the interaction
MERDFLGLSDKQYLSNNVKHEVNDDAVEERGLSTKAAREWGKSKVFATSSFMPSSDFQEAKAFPGAYQWGSVSAANVFRRCQFGGAFQNATPLLLGGSVPLPTHPSLVPRVASSGSSPQLTIFYGGTISVFNDISPDKAQAIMLCAGNGLKGETGDSKPVREAERMYGKQIHNTAATSSSSATHTDNFSRCRDTPVAATNAMSMIESFNAAPRNMIPSVPQARAASLARFLEKRKERLMSAMPYKKMLLDLSTGESSGMNYSSTSPT [K224A] | disrupting interaction
MERDFLGLSDKQYLSNNVKHEVNDDAVEERGLSTKAAREWGKSKVFATSSFMPSSDFQEAKAFPGAYQWGSVSAANVFRRCQFGGAFQNATPLLLGGSVPLPTHPSLVPRVASSGSSPQLTIFYGGTISVFNDISPDKAQAIMLCAGNGLKGETGDSKPVREAERMYGKQIHNTAATSSSSATHTDNFSRCRDTPVAATNAMSMIESFNAAPRNMIPSVPQAAKASLARFLEKRKERLMSAMPYKKMLLDLSTGESSGMNYSSTSPT [R223A] | disrupting interaction
MERDFLGLSDKQYLSNNVKHEVNDDAVEERGLSTKAAREWGKSKVFATSSFMPSSDFQEAKAFPGAYQWGSVSAANVFRRCQFGGAFQNATPLLLGGSVPLPTHPSLVPRVASSGSSPQLTIFYGGTISVFNDISPDKAQAIMLCAGNGLKGETGDSKPVREAERMYGKQIHNTAATSSSSATHTDNFSRCRDTPVAATNAMSMIESFNAAPRNMIPSVPQAAAASLARFLEKRKERLMSAMPYKKMLLDLSTGESSGMNYSSTSPT [R223A;K224A] | disrupting interaction

Variants of: B2
Conditions: with coi1_arath COI1, O04197

Variant | effect of a mutation on the interaction
MSSSMECSEFVGSRRFTGKKPSFSQTCSRLSQYLKENGSFGDLSLGMACKPDVNGTLGNSRQPTTTMSLFPCEASNMDSMVQDVKPTNLFPRQPSFSSSSSSLPKEDVLKMTQTTRSVKPESQTAPLTIFYAGQVIVFNDFSAEKAKEVINLASKGTANSLAKNQTDIRSNIATIANQVPHPRKTTTQEPIQSSPTPLTELPIAAAASLHRFLEKRKDRVTSKAPYQLCDPAKASSNPQTTGNMSWLGLAAEI [R205A;R206A] | disrupting interaction
MSSSMECSEFVGSRRFTGKKPSFSQTCSRLSQYLKENGSFGDLSLGMACKPDVNGTLGNSRQPTTTMSLFPCEASNMDSMVQDVKPTNLFPRQPSFSSSSSSLPKEDVLKMTQTTRSVKPESQTAPLTIFYAGQVIVFNDFSAEKAKEVINLASKGTANSLAKNQTDIRSNIATIANQVPHPRKTTTQEPIQSSPTPLTELPIAARASLHRFLEKRKDRVTSKAPYQLCDPAKASSNPQTTGNMSWLGLAAEI [R205A] | disrupting interaction
MSSSMECSEFVGSRRFTGKKPSFSQTCSRLSQYLKENGSFGDLSLGMACKPDVNGTLGNSRQPTTTMSLFPCEASNMDSMVQDVKPTNLFPRQPSFSSSSSSLPKEDVLKMTQTTRSVKPESQTAPLTIFYAGQVIVFNDFSAEKAKEVINLASKGTANSLAKNQTDIRSNIATIANQVPHPRKTTTQEPIQSSPTPLTELPIARAASLHRFLEKRKDRVTSKAPYQLCDPAKASSNPQTTGNMSWLGLAAEI [R206A] | disrupting interaction
